Laboratory results published in the Immune Epitope Database (IEDB).

Experiments:
Assay in all cases: IEDB peptide-MHC binding, purified MHC/competitive/radioactivity; filed as Kd, often an IC50 or EC50 that approximates it; ≥ and ≤ were set here for values at or beyond the usual limits of such assays
HLA-A*03:01 = target: HLA-A*03:01
HLA-A*11:01 = target: HLA-A*11:01
HLA-A*31:01 = target: HLA-A*31:01
HLA-A*33:01 = target: HLA-A*33:01
HLA-A*68:01 = target: HLA-A*68:01
[1] = source organism: Vaccinia virus WR
[2] = source organism: Dengue virus 2 Jamaica/1409/1983
[3] = source organism: SARS coronavirus Tor2
[4] = source organism: Vaccinia virus Copenhagen
[5] = source organism: Mammarenavirus whitewaterense
[6] = source organism: Dengue virus 2 Peru/IQT2913/1996

Row | Sequence | Kd (HLA-A*03:01; [1]) [nM] | Kd (HLA-A*11:01; [1]) [nM] | Kd (HLA-A*31:01; [1]) [nM] | Kd (HLA-A*33:01; [1]) [nM] | Kd (HLA-A*68:01; [1]) [nM] | further results
1 | DIETAIRAGY | 2480 | 5720 | 19400 | 6790 | 1240 | 
2 | MALFLEEMLR |  |  |  |  |  | Kd (HLA-A*31:01; [2]): 19.6 nM; Kd (HLA-A*33:01; [2]): 27.2 nM; Kd (HLA-A*68:01; [2]): 11.8 nM
3 | SLFKNVRLLK | 5.13 | 13.2 | 118 | 2210 | 335 | 
4 | KVAGFAKFLK |  |  |  |  |  | Kd (HLA-A*03:01; [3]): 8.52 nM; Kd (HLA-A*11:01; [3]): 10.8 nM; Kd (HLA-A*31:01; [3]): 31.8 nM; Kd (HLA-A*33:01; [3]): 3180 nM; Kd (HLA-A*68:01; [3]): 11.8 nM
5 | IVTVTTKDY | 1930 | ≥ 32600 | 8980 | 18400 | 1690 | 
6 | NSCSIGNVTR | ≥ 70100 | 890 | 34.1 | 16.1 | 6.73 | 
7 | QTVGPWHLGK |  |  |  |  |  | Kd (HLA-A*11:01; source organism: Dengue virus 4 Philippines/H241/1956): 37.8 nM
8 | TLFIDRGSIK |  |  |  |  |  | Kd (HLA-A*03:01; [4]): 12.4 nM; Kd (HLA-A*11:01; [4]): 32.4 nM; Kd (HLA-A*31:01; [4]): 8010 nM; Kd (HLA-A*33:01; [4]): 4650 nM; Kd (HLA-A*68:01; [4]): 40.9 nM
9 | QFVDINRNNK | 1880 | 662 | 4.52 | 763 | 171 | 
10 | NITLKIIETY | ≥ 70100 | 414 | 1210 | ≥ 20700 | 444 | 
11 | EARIVDKFGK | 7730 | 2570 | 633 | ≥ 20500 | 101 | 
12 | QLMYALEPR |  |  |  |  |  | Kd (HLA-A*03:01; [4]): 15200 nM; Kd (HLA-A*11:01; [4]): 2460 nM; Kd (HLA-A*31:01; [4]): 12800 nM; Kd (HLA-A*33:01; [4]): 17300 nM; Kd (HLA-A*68:01; [4]): 2950 nM
13 | RNPYENVLYK |  |  |  |  |  | Kd (HLA-A*03:01; [5]): 2310 nM; Kd (HLA-A*11:01; [5]): 1500 nM; Kd (HLA-A*31:01; [5]): ≥ 28800 nM; Kd (HLA-A*33:01; [5]): ≥ 70000 nM; Kd (HLA-A*68:01; [5]): 3490 nM
14 | AIEKDRLDK | ≥ 78000 | 1120 | ≥ 77900 | ≥ 77700 | ≥ 77700 | 
15 | WIKDIMTSTR | 2200 | ≥ 21200 | 301 | 64 | 22.7 | 
16 | KQIRSAAKK |  |  |  |  |  | Kd (HLA-A*03:01; [3]): 43.1 nM; Kd (HLA-A*11:01; [3]): 73.7 nM; Kd (HLA-A*31:01; [3]): 1080 nM; Kd (HLA-A*33:01; [3]): ≥ 77700 nM; Kd (HLA-A*68:01; [3]): 1330 nM
17 | QLPQGTTLPK |  |  |  |  |  | Kd (HLA-A*03:01; [3]): 52.5 nM; Kd (HLA-A*11:01; [3]): 396 nM; Kd (HLA-A*31:01; [3]): 8640 nM; Kd (HLA-A*33:01; [3]): ≥ 37000 nM; Kd (HLA-A*68:01; [3]): 317 nM
18 | RMLINRFTMR |  |  |  |  |  | Kd (HLA-A*03:01; [6]): 86.6 nM; Kd (HLA-A*31:01; [6]): 14.3 nM; Kd (HLA-A*33:01; [6]): 162 nM
